Our source for the Kd values is patent US20160312212A1 (published 2016).

Test [1] deals with T1, Thrombin (UniProt P00734 328-622). Put plainly: SPR (Biacore single cycle kinetics).
Test [2] deals with T1, Thrombin. Put plainly: SPR (Biacore multiple cycle kinetics). A general note: Surface plasmon resonance follows binding to a sensor surface in real time, without labels.

Where no end group is shown, it is not given here. The star is where a group is joined. Biotin = O=C1N[C@H]2[C@H](CS[C@H]2CCCCC(=O)*)N1

B1: peptide encoded by linear DNA template 300-53-C (cow antibody scaffold with RDPGRLIFQS and Strep-tag II) (designed binder)
chain: MGCTSVHQETKKYQSRDPGRLIFQSSYTYNYEHVDVWGCGSAWSHPQFEKGS
The term Kd denotes the equilibrium constant for the complex coming apart. On to B1, for which binding with Thrombin [1] was characterised by a dissociation constant (Kd) of 0.96 nM.
For Biotin-GCTSVHQETKKYQSRDPGRLIFQSSYTYNYEHVDVWGCG (designed binder, cysteine pairing not given here) [Biotin-GCTSVHQETKKYQSRDPGRLIFQSSYTYNYEHVDVWGCG], the affinity in the test with Thrombin [2], expressed as Kd, was 0.78 nM.
As for Biotin-GGGGSGGGGSRDPGRLIFQS [Biotin-GGGGSGGGGSRDPGRLIFQS], the Kd in the test with Thrombin [2] is 36.6 nM.
